These results are taken from patent US20090312277.

The target of this data set is p21/WAF1 (UniProt P38936).
Sequence of p21/WAF1 (P38936 whole entry): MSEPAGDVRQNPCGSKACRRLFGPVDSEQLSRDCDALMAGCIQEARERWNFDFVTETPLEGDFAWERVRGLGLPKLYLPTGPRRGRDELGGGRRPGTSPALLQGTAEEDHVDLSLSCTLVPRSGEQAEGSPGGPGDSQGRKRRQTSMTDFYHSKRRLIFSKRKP

Sequence of cathepsin L (chain, as listed by the source): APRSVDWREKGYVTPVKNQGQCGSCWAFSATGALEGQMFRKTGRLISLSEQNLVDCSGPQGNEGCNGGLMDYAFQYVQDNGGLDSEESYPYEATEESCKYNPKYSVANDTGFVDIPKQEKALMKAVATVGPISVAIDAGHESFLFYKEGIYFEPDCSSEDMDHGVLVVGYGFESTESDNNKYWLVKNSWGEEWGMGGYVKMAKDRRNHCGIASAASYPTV

In the case of cathepsin L, the cleavage in vitro result was “p2l/WAF1 is readily cleaved by cathepsin L in vitro”.
